These results are taken from patent US20210079074A1 (Alector, published 2021).

Substitutions are numbered along the chain they refer to. Read-outs that look alike come from different tables or passages of the source.

The target of test [1] is T1, FcγRIIa receptor (H131 variant) (UniProt P12318 34-317, limits assumed).
T1 sequence (looked up): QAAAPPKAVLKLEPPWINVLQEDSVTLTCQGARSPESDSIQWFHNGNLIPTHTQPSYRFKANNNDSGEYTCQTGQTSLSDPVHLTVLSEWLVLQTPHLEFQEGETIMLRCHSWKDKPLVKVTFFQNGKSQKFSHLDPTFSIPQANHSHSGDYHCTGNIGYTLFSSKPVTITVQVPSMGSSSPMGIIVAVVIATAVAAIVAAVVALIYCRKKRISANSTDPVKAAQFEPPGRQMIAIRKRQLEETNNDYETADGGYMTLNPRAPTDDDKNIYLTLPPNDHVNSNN
Nature of the test: cell-based or functional assay.

In test [2] the target is FcγRIIIa receptor (V158 variant) (UniProt P08637 17-254). Nature of the test: cell-based or functional assay.
FcγRIIIa receptor (V158 variant), sequence (P08637 other isoform, or with tags, fused parts or gaps mutant limits assumed): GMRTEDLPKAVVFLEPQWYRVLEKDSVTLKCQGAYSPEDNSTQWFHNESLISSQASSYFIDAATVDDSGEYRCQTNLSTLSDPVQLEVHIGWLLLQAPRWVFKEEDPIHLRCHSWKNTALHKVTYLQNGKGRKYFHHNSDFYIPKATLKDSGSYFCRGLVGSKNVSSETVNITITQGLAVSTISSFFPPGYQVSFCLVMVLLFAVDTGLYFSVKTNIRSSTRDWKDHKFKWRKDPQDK
The target in test [3] is T2, recombinant MS4A4A soluble polypeptide JS5.
T2 construct: also called JS5.His
Nature of the test: ELISA, 1 ug/ml antibody. As to the method: (§1) Anti-MS4A4A antibodies of the present disclosure were tested for their ability to bind to the different recombinant MS4A4A soluble polypeptides, as described in Example 2, as follows. Nucleic acid encoding the VH and VL domains of humanized anti-MS4A4A antibodies of the present disclosure were cloned into pcDNA3.4 vector which contains either the human IgG1 heavy chain constant domain or human kappa constant domain. The humanized anti-MS4A4A antibodies were expressed in Expi293 cells and were purified by Mab select antibody purification resin (GE Healthcare Life Science, cat#17519902) following the manufacture's protocol. ELISA was performed to measure binding of anti-MS4A4A antibodies of the present disclosure the recombinant MS4A4A soluble polypeptides. 1 μg/ml biotinylated antigens were preincubated on the streptavidin-coated ELISA plates (Thermo Scientific, cat#PI15120) for 1 hour. Plates were washed 3 times, followed by the addition of antibodies (1 μg/ml, 0.33 μg/ml, and 0.11 μg/ml antibodies. Plates were incubated at room temperature with shaking for 1 hr, washed 3 times, then 1/2500 dilution of HRP conjugates goat anti human kappa antibodies added (SigmaAldrich cat#. A7164-1ML).

Test [4] addresses T2, recombinant MS4A4A soluble polypeptide …. Kind of test: ELISA, 0.11 ug/ml antibody. As for the experimental part: as §1
Test [5] shares this target. Kind of test: ELISA, 0.33 ug/ml antibody. As for the experimental part: as §1
Test [6] concerns the target T3, human MS4A4A (human, UniProt Q96JQ5 1-239). Nature of the test: FACS, U937-huMS4A4A, 5 ug/ml. As for the experimental part: (§2) Anti-MS4A4A antibodies tested were either mouse IgGs purified from hybridoma supernatant or human IgG1 Fc chimeras produced recombinantly in Expi293 cells. Affinity binding to cells was determined as follows. Briefly, cells were harvested, washed, and labeled with Aqua Live/Dead for viability discrimination. After a wash with PBS, 2×10\hat{ }4 cells were aliquoted per well in 96-well U-bottom plates and incubated with 50 μL of purified anti-MS4A4A antibody at various concentrations (3× dilutions starting at 10 μg/mL) in FACS buffer (PBS+2% FBS+1 mM EDTA). After this primary incubation, the supernatant was removed via centrifugation, washed 2× with 150 μL of ice-cold FACS buffer, and incubated with the appropriate secondary antibody on ice for 15 minutes. Following the secondary antibody incubation, the cells were again washed 2× with ice-cold FACS buffer and resuspended in a final volume of 200 μL of FACS buffer. Flow cytometry analysis was performed on a FACSCanto system (BD Biosciences). Binding data was expressed as Median Fluorescent Intensity (MFI).
(§3) These experiments were performed using anti-MS4A4A antibodies at a concentration of 5 μg/ml and were assayed for cell binding by flow cytometry.

The target of test [7] is T4, recombinant MS4A4A soluble polypeptide JS1.
T4 construct: also called JS1.His; loop grafted antigen
Kind of test: ELISA, 1 ug/ml antibody. As for the experimental part:
as §1

The target of test [8] is T3, human MS4A4A. Nature of the test: FACS, U937-huMS4A4A, 5 ug/ml. As to the method: as §2, §3
The source holds these as a separate data set.

Test [9] addresses T2, recombinant MS4A4A soluble polypeptide …. Nature of the test: ELISA, 0.4 ug/ml antibody.

B1: anti-MS4A4A antibody 4A-313 wildtype (WT) huIgG1 (antibody)
heavy: not shown
light: EIVLTQSPATLSLSPGERATLSCRASESVDNYGVSRMNWYQQKPGQAPRLLIYGASNQGSGIPARFSGSGSGTDFTLTISSLEPEDFAVYYCQQSKEVPPTFGGGTKVEIKRTVAAPSVFIFPPSDEQLKSGTASVVCLLNNFYPREAKVQWKVDNALQSGNSQESVTEQDSKDSTYSLSSTLTLSKADYEKHKVYACEVTHQGLSSPVTKSFNRGEC
notes: also called 4A-313 WT huIgG1; 4A-313.WT
In the case of B1, in test [1], the “luminescence, ADCP reporter, 3.048316 ng/mL” value was determined as 48; the “luminescence, ADCP reporter, 9.144947 ng/mL” value stood at 54; the “luminescence, ADCP reporter, 27.43484 ng/mL” value is 80; the “luminescence, ADCP reporter, 82.30453 ng/mL” value was 64. In addition, in test [1], the “luminescence, ADCP reporter, 246.9136 ng/mL” value came out at 98; the “luminescence, ADCP reporter, 740.7407 ng/mL” value was determined as 85; the “luminescence, ADCP reporter, 2,222.222 ng/mL” value came to 128; the “luminescence, ADCP reporter, 6,666.667 ng/mL” value stood at 403. Further, the “luminescence, ADCP reporter, 20,000 ng/mL” value in test [1] amounted to 455. Besides, in test [2], the “luminescence, ADCC reporter, 3.048316 ng/mL” value is 346; the “luminescence, ADCC reporter, 9.144947 ng/mL” value is 367; the “luminescence, ADCC reporter, 27.43484 ng/mL” value was determined as 473; the “luminescence, ADCC reporter, 82.30453 ng/mL” value amounted to 839. Besides, in test [2], the “luminescence, ADCC reporter, 246.9136 ng/mL” value is 2060; the “luminescence, ADCC reporter, 740.7407 ng/mL” value amounted to 4350; the “luminescence, ADCC reporter, 2,222.222 ng/mL” value was 5130; the “luminescence, ADCC reporter, 6,666.667 ng/mL” value was 4890. The “luminescence, ADCC reporter, 20,000 ng/mL” value in [2] came out at 4400. Moreover, in [3], the “ELISA OD” value was 1.26. In [4], the “ELISA OD” value is 0.741. Also, the “ELISA OD” value in test [5] worked out at 1.05. In addition, the MFI in the test with human MS4A4A [6] came out at 41800.

B2: anti-MS4A4A antibody 4A-302 (antibody, human IgG1, V domains shown)
VH: QVQLVQSGAEVKKPGASVKVSCKASGYTFTNYWMQWVRQAPGQGLEWMGATHPGHGDTRYAQKFQGRVTMTRDTSTSTVYMELSSLRSEDTAVYYCAREEVYYGFRSYWYFDVWGRGTLVTVSS
VL: EIVLTQSPATLSLSPGERATLSCRASESVDNYGVSFMNWYQQKPGQAPRLLIYGASNQGSGIPARFSGSGSGTDFTLTISSLEPEDFAVYYCQQSKEVPPTFGGGTKVEIK
notes: human IgG1/kappa
B2: the OD450 in test [7] came out at 0.127. Further, the “ELISA OD” value in [3] turned out to be 0.128; in test [4], 0.091; in test [5], 0.103. The MFI with human MS4A4A [8] worked out at 113; with human MS4A4A [6], 24400.

B3: anti-MS4A4A antibody 4A-312 (antibody, V domains shown)
VH: B2 VH with Y102D
VL: B2 VL with G59Q
notes: full human IgG
B3: the “ELISA OD” value in test [3] turned out to be 0.184; in test [4], 0.097; in [5], 0.11. Besides, the MFI with human MS4A4A [6] came to 17700.

B4: anti-MS4A4A antibody 4A-314 (antibody, V domains shown)
VH: B2 VH with A50T, H52L
VL: B2 VL with F36R
notes: full human IgG
In the case of B4, the figures for the “ELISA OD” value in test [3], in [4] and in test [5] were 1.14, 0.399 and 0.682, respectively. In the test with human MS4A4A [6], this molecule displayed an MFI of 15300.

B5: anti-MS4A4A antibody 4A-350 (antibody, V domains shown)
VH: QVQLVQSGSELKKPGASVKVSCKASGYIFTSYGLSWVRQAPGQGLEWMGWINTYSGVPTYAQGFTGRFVFSLDTSVSTAYLQISSLKAEDTAVYYCARTLADYWGQGTLVTVSS
VL: DVVMTQSPLSLPVTLGQPASISCKSSQSLLYSDGKTYLSWFQQRPGQSPRRLIYLVSKLDSGVPDRFSGSGSGTDFTLKISRVEAEDVGVYYCWQGIDFHQTFGGGTKVEIK
notes: full human IgG
As for B5, the OD450 in test [9] turned out to be 0.939. In the test with human MS4A4A [6], this molecule displayed an MFI of 11600.

B6: anti-MS4A4A antibody 4A-369 (antibody, V domains shown)
VH: B5 VH with I28T, V37I, L100M, A101V
VL: B5 VL with D98R
notes: full human IgG
Consider B6, for which, in test [9], the OD450 is 0.852. This molecule yielded an MFI with human MS4A4A [6] of 10100.

B7: anti-MS4A4A antibody 4A-358 (antibody, V domains shown)
VH: B5 VH
VL: B5 VL with D98R
notes: full human IgG
Take B7: the OD450 in [9] was found to be 0.901. The same molecule gave an MFI with human MS4A4A [6] of 12100.

B8: anti-MS4A4A antibody 4A-351 (antibody, V domains shown)
VH: B5 VH
VL: B5 VL with Q27R
notes: full human IgG
Consider B8, for which the entries for the “ELISA OD” value in test [3], in test [4] and in test [5] were 0.953, 0.816 and 0.898, respectively. Further, the OD450 in [9] amounted to 0.99. For the same molecule, in the test with human MS4A4A [6], the MFI is 12200.

B9: anti-MS4A4A antibody 4A-362 (antibody, V domains shown)
VH: B5 VH
VL: B5 VL with K58R
notes: full human IgG
As for B9, the OD450 in test [9] came out at 0.908. Moreover, in the test with human MS4A4A [6], the MFI was determined as 10000.

B10: anti-MS4A4A antibody 4A-360 (antibody, V domains shown)
VH: B5 VH
VL: B5 VL with S26G, K58R
notes: full human IgG
B10: the OD450 in test [9] was determined as 0.797. The MFI with human MS4A4A [6] is 10300.

B11: anti-MS4A4A antibody 4A-380 (antibody, V domains shown)
VH: B5 VH with T99S, L100M
VL: B5 VL with Q27R, D33S
For B11, the “ELISA OD” value in test [3] was found to be 0.981; in test [4] it was 0.654; in test [5] it was 0.916. The same molecule displayed an MFI with human MS4A4A [6] of 11800.

B12: anti-MS4A4A antibody 4A-332 (antibody, human IgG1, V domains shown)
VH: B5 VH with T99S, A101V
VL: B5 VL
notes: humanized 4A-21; human IgG1/kappa
For the molecule B12, the OD450 worked out at 1.91 in test [7] and 0.821 in [9]. For the same molecule, the “ELISA OD” value was found to be 0.997 in test [3], 0.677 in test [4] and 0.851 in test [5]. The values for the MFI with human MS4A4A [8] and with human MS4A4A [6] were 324 and 8820, respectively.

B13: anti-MS4A4A antibody 4A-376 (antibody, V domains shown)
VH: B5 VH with T99S, L100M
VL: B5 VL with Q27R
notes: full human IgG
On to B13, for which the “ELISA OD” value in test [3] amounted to 1.04; in test [4] it was 0.83; in test [5], 1.03. Besides, the OD450 in test [9] is 0.977. Moreover, the MFI in the test with human MS4A4A [6] is 16700.

B14: anti-MS4A4A antibody 4A-381 (antibody, V domains shown)
VH: B5 VH with T99S, L100M
VL: B5 VL with Q27R, D33Q
As for B14, the “ELISA OD” value in test [3] came to 1; in test [4] it was 0.685; in [5], 0.94. The molecule also had an MFI with human MS4A4A [6] of 12600.

B15: anti-MS4A4A antibody 4A-373 (antibody, V domains shown)
VH: B5 VH with A101V
VL: B5 VL with Q27R
notes: full human IgG
B15: the OD450 in [9] came out at 0.907. The molecule also registered an MFI with human MS4A4A [6] of 11900.
